The values below come from patent US20260274955A1 (JANUX THERAPEUTICS, published 2026).

The target in assay [1] is T1, Anti-CD28 Fab (SEQ ID NOs: 202, 203).
T1 construct: biotinylated and captured on neutravidin coated plates in the phage ELISA
Kind of assay: phage ELISA, Fab on plate. (In an ELISA, binding on a coated surface is turned into a signal by an enzyme label.)
T1 sequence (VH, as listed by the source, chain 1 of 2): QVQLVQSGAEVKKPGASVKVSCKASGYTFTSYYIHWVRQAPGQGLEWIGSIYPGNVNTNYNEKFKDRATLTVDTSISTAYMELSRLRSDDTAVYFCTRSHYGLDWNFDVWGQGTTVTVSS
T1 sequence (VL, as listed by the source, chain 2 of 2): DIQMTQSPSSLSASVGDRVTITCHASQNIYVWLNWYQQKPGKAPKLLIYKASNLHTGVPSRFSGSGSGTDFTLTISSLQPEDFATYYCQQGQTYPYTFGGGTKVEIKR

Assay [2] shares this target. Briefly: phage ELISA, Fab on plate, CD28 antigen as competitor.
Target sequence in this assay (VH, as listed by the source, chain 1 of 2): as the sequence (VH, as listed by the source, chain 1 of 2) above
Target sequence in this assay (VL, as listed by the source, chain 2 of 2): as the sequence (VL, as listed by the source, chain 2 of 2) above
Protocol: After panning, phage infected bacteria were plated out and colonies picked into 96 well blocks. Clonal phage was then amplified and separated from bacterial cells via centrifugation.
Clonal phage were harvested as crude supernatants and screened via standard ELISAs. […] Prior to the addition of clonal phage, wells were incubated with blocking buffer and CD28 antigen or blocking buffer alone. Without washing or aspirating, clonal phage supernatants were then added to the wells and incubated for a short time. Wells were then washed followed by detection of bound phage using a horse radish conjugated anti-M13 antibody. Clonal phage of interest were then sent for sequence analysis.
Assay [3] concerns the target Anti-CD28 Fab (SEQ ID NOs: 202, 203). Kind of assay: phage binding ELISA on captured Fab.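 Further: clonal phage supernatants added briefly to wells pre-incubated with CD28 antigen or with blocking buffer only, then washed, bound phage read by ELISA using HRP-coupled anti-M13 antibody.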
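Wherever Anti-CD28 Fab (SEQ ID NOs: 202, 203) signal is given: crude clonal phage supernatants added to wells pretreated with blocking buffer with or without CD28 antigen, then bound phage read out via HRP-linked anti-M13 antibody.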
Target sequence in this assay (VH, as listed by the source, chain 1 of 2): as the sequence (VH, as listed by the source, chain 1 of 2) above
Target sequence in this assay (VL, as listed by the source, chain 2 of 2): as the sequence (VL, as listed by the source, chain 2 of 2) above
Protocol: Clonal phage were harvested as crude supernatants and screened via standard ELISAs. […] Prior to the addition of clonal phage, wells were incubated with blocking buffer and CD28 antigen or blocking buffer alone. Without washing or aspirating, clonal phage supernatants were then added to the wells and incubated for a short time. Wells were then washed followed by detection of bound phage using a horse radish conjugated anti-M13 antibody.

For YCAGHAEEYMLKCL [Phage-737], the “Anti-CD28 Fab (SEQ ID NOs: 202, 203) signal” value in assay [1] is 1.09. Moreover, in assay [2], the “Anti-CD28 Fab signal in the presence of CD28” value (“Anti-CD28 Fab signal … of CD28” below) is 0.07.
YCEGHLKEYMQKCL [Phage-714]: the “Anti-CD28 Fab (SEQ ID NOs: 202, 203) signal” value in assay [1] was found to be 1.17. For the same molecule, in assay [2], the “Anti-CD28 Fab signal … of CD28” value came to 0.07.
For YCEGHSEMYMSKCL [Phage-741] the same measures were 1.07 and 0.09.
For YCEGHSTEYIQKCL [Phage-694] the same measures were 1.23 and 0.09.
Take FMCLPQNPHPLCFK [Phage-3]: the “Anti-CD28 Fab signal” value in assay [3] came to 0.84.
YCEGHAAEYLWKCL [Phage-705]: the “Anti-CD28 Fab (SEQ ID NOs: 202, 203) signal” value in assay [1] turned out to be 1.18. For the same molecule, the “Anti-CD28 Fab signal … of CD28” value in assay [2] came out at 0.09.
The corresponding values for YCEGHRAEYMSKCL [Phage-716] are 1.16 and 0.09.
The corresponding values for YCEGHSAEHMPKCL [Phage-696] are 1.23 and 0.09.
The corresponding values for YCDGHLEQYMLKCL [Phage-692] are 1.24 and 0.09.
As to YCDGHAPIYMQKCL [Phage-747], the “Anti-CD28 Fab (SEQ ID NOs: 202, 203) signal” value in assay [1] came out at 1.06. Besides, in assay [2], the “Anti-CD28 Fab signal … of CD28” value was found to be 0.06.
For YCAGHAWQYINKCL [Phage-13], the “Anti-CD28 Fab signal” value in assay [3] was 0.64.
For YCVGHYPEYMEKCL [Phage-697], the “Anti-CD28 Fab (SEQ ID NOs: 202, 203) signal” value in assay [1] came out at 1.22. The “Anti-CD28 Fab signal … of CD28” value in assay [2] was found to be 0.07.
For YCDGHLSVYMSKCL [Phage-718] the same measures were 1.15 and 0.07.
The corresponding values for YCEGHAQEYMAKCL [Phage-744] are 1.06 and 0.08.
The corresponding values for YCDGHAMEYMEKCL [Phage-733] are 1.11 and 0.08.
Turning to YCDGHANAYIWKCL [Phage-742], the “Anti-CD28 Fab (SEQ ID NOs: 202, 203) signal” value in assay [1] was determined as 1.07. For the same molecule, the “Anti-CD28 Fab signal … of CD28” value in assay [2] came out at 0.09.
For the molecule WCWDYREWVPMTCP [Phage-8], the “Anti-CD28 Fab signal” value in assay [3] turned out to be 2.3.
Take WCWYYREWVPMTCP [Phage-14]: the “Anti-CD28 Fab signal” value in assay [3] worked out at 1.85.
Regarding YCHGHLPQYMSKCM [Phage-700], the “Anti-CD28 Fab (SEQ ID NOs: 202, 203) signal” value in assay [1] worked out at 1.21. Moreover, the “Anti-CD28 Fab signal … of CD28” value in assay [2] worked out at 0.06.
On to YWSCFQIPFTCFYF [Phage-1], for which, in assay [3], the “Anti-CD28 Fab signal” value turned out to be 1.44.
Still for that read-out and setting: the figure for GCQYPWAFDAMSCP [Phage-6] is 2.38.
Consider YCDGHAKVYIWKCL [Phage-745], for which the “Anti-CD28 Fab (SEQ ID NOs: 202, 203) signal” value in assay [1] was found to be 1.06. The “Anti-CD28 Fab signal … of CD28” value in assay [2] is 0.08.
With PDCQTILFKPWCVR [Phage-4], the “Anti-CD28 Fab signal” value in assay [3] was 2.09.
The same measure, in the same setting: for PDCHTILFKPWCVR [Phage-16] the value was 1.
Take YCAGHLDIYLAKCL [Phage-701]: the “Anti-CD28 Fab (SEQ ID NOs: 202, 203) signal” value in assay [1] came to 1.21. The “Anti-CD28 Fab signal … of CD28” value in assay [2] worked out at 0.07.
The corresponding values for YCDGHRPEYMSKCL [Phage-706] are 1.18 and 0.07.
The corresponding values for YCEGHAEQYMEKCL [Phage-713] are 1.17 and 0.08.
The corresponding values for YCDGHEARYMQKCL [Phage-698] are 1.21 and 0.07.
On to YCDGHSWIYMVKCL [Phage-717], for which the “Anti-CD28 Fab (SEQ ID NOs: 202, 203) signal” value in assay [1] came out at 1.16. In assay [2], the “Anti-CD28 Fab signal … of CD28” value amounted to 0.06.
Turning to YCEGHLWEYMKKCL [Phage-748], the “Anti-CD28 Fab (SEQ ID NOs: 202, 203) signal” value in assay [1] was 1.06. For the same molecule, the “Anti-CD28 Fab signal … of CD28” value in assay [2] was 0.07.
The corresponding values for YCDGHSWEYLGKCL [Phage-703] are 1.2 and 0.05.
For the molecule YCDGHSFHYMAKCL [Phage-740], the “Anti-CD28 Fab (SEQ ID NOs: 202, 203) signal” value in assay [1] was found to be 1.08. In assay [2], the “Anti-CD28 Fab signal … of CD28” value was determined as 0.06.
For YCEGHMPEYLAKCL [Phage-707] the same measures were 1.18 and 0.07.
For YCDGHSQEYMSKCL [Phage-699] the same measures were 1.21 and 0.06.
The corresponding values for YCEGHIPMYMLKCM [Phage-743] are 1.06 and 0.09.
With YCVGHLPEYMLECM [Phage-739], in assay [1], the “Anti-CD28 Fab (SEQ ID NOs: 202, 203) signal” value was 1.08. The “Anti-CD28 Fab signal … of CD28” value in assay [2] was 0.07.
On to YCEGHMGEYMLKCL [Phage-735], for which the “Anti-CD28 Fab (SEQ ID NOs: 202, 203) signal” value in assay [1] stood at 1.1. Besides, the “Anti-CD28 Fab signal … of CD28” value in assay [2] came to 0.06.
Consider WECLKYTEANACTY [Phage-2], for which the “Anti-CD28 Fab signal” value in assay [3] was 1.55.
YCDGHSMMYMQKCL [Phage-695]: in assay [1], the “Anti-CD28 Fab (SEQ ID NOs: 202, 203) signal” value came out at 1.23. Further, the “Anti-CD28 Fab signal … of CD28” value in assay [2] is 0.06.
As to ECHWSMWAVGHACF [Phage-9], the “Anti-CD28 Fab signal” value in assay [3] stood at 1.77.
Still for that read-out and setting: the figure for ACDTYFAGMINECF [Phage-5] is 0.92.
Take YCAGHSSEYIGKCL [Phage-710]: the “Anti-CD28 Fab (SEQ ID NOs: 202, 203) signal” value in assay [1] turned out to be 1.17. Moreover, the “Anti-CD28 Fab signal … of CD28” value in assay [2] stood at 0.06.
The corresponding values for YCAGHAPEYISKCL [Phage-702] are 1.21 and 0.07.
As to YCEGHLPQYMSKCL [Phage-719], in assay [1], the “Anti-CD28 Fab (SEQ ID NOs: 202, 203) signal” value worked out at 1.15. The “Anti-CD28 Fab signal … of CD28” value in assay [2] worked out at 0.09.
In the case of YCEGHAGVYMAKCL [Phage-708], the “Anti-CD28 Fab (SEQ ID NOs: 202, 203) signal” value in assay [1] is 1.17. For the same molecule, the “Anti-CD28 Fab signal … of CD28” value in assay [2] came out at 0.05.
For YCEGHIGIYMSKCL [Phage-693] the same measures were 1.23 and 0.07.
With WCWDYKLWVPTQCP [Phage-7], in assay [3], the “Anti-CD28 Fab signal” value is 2.27.
As to YCEGHIPAYMAKCL [Phage-746], the “Anti-CD28 Fab (SEQ ID NOs: 202, 203) signal” value in assay [1] was 1.06. Moreover, the “Anti-CD28 Fab signal … of CD28” value in assay [2] amounted to 0.08.
For YCEGHLWEYLAKCL [Phage-734] the same measures were 1.1 and 0.05.
